Assay results taken from patent US20240026019A1 (Innovent, published 2024).

Key:
[1] = biological target: human TNFR2 overexpressed on CHO-S cells (CHOS-hTNFR2) (human) (UniProt P20333); experiment: flow cytometry on CHO-S cells overexpressing human TNFR2 (negative control), MFI-FL2-A; unit taken from the axis Conc log(nM); the curve is flat, so the fit is ambiguous
[2] = biological target: cynomolgus monkey TNFR2 overexpressed on CHO-S cells (CHOS-cTNFR2) (cynomolgus monkey); experiment: flow cytometry on CHO-S cells overexpressing cynomolgus monkey TNFR2 (negative control), MFI-FL2-A; unit taken from the axis Conc log(nM); the curve stays near the baseline
[3] = biological target: TNFR2 on human K562 chronic myeloid leukemia cells and on primary human Treg cells (human) (UniProt P20333); experiment: flow cytometry on human K562 CML cells (negative control), MFI(FL2); unit taken from the axis Conc log(nM); the curve stays near the baseline and the value lies beyond the highest concentration shown
[4] = biological target: T1, rh-TNFR2-His (recombinant human TNFR2, His tag) (human, UniProt P20333 23-257); experiment: BLI (ForteBio), antibody on sensor, 100 nM rh-TNFR2-His in solution, 1:1 model
T1 construct: Soluble antigen of the ForteBio assay; not shown: His tag
T1 sequence (looked up): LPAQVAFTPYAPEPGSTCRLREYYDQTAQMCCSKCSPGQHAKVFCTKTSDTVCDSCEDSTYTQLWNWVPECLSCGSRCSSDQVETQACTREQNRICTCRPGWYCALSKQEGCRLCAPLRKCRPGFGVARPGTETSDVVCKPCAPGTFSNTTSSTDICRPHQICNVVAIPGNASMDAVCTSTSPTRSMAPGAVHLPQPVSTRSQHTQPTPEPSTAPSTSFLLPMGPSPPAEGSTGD
Protocol: (§1) In the present invention, the equilibrium dissociation constant (KD) for the binding of the 3 exemplary chimeric antibodies of the present invention described above to human TNFR2 (hTNFR2), cynomolgus monkey TNFR2 (cTNFR2), murine TNFR2(mTNFR2), and human TNFR1(hTNFR1) was determined by biological optical interferometry (ForteBio). For comparison, the equilibrium dissociation constant (KD) of a positive control antibody OPI (humanized antibody SBT-002e in WO 2017083525, VH sequence of SEQ ID NO: 58, VL sequence of SEQ ID NO: 59) was determined.
(§2) The ForteBio affinity assay was performed according to the prior art (Estep, P, et al., High throughput solution based measurement of antibody-antigen affinity and epitope binning. MAbs, 2013.5(2): p. 270-278). Briefly, a sensor was equilibrated offline in an assay buffer for 30 min, and was equilibrated online for 60 s to establish a baseline. The purified antibodies obtained as described above were loaded online onto an AHQ sensor (ForteBio) for the ForteBio affinity assay. The sensor with the loaded antibodies was then exposed to each of 100 nM hTNFR2, cTNFR2, mTNFR2, and hTNFR1 antigens for 5 min before transferring the sensor to an assay buffer for 5 min of dissociation for dissociation rate measurement. The kinetic analysis was performed using a 1:1 binding model.

[5] = biological target: T2, CYNO-TNFR2-His (cynomolgus monkey TNFR2, His tag) (cynomolgus monkey, UniProt A0A2K5VET2 132-366); experiment: BLI (ForteBio), antibody on sensor, 100 nM CYNO-TNFR2-His in solution, 1:1 model
T2 construct: Soluble antigen of the ForteBio assay; also called cTNFR2; not shown: His tag
T2 sequence: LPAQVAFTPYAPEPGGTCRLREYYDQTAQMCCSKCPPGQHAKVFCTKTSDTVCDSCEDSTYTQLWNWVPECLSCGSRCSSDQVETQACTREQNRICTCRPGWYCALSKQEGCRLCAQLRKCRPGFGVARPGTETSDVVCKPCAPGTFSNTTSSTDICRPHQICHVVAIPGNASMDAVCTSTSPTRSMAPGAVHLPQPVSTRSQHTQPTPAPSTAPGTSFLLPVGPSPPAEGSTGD
Protocol: as §1, §2

[6] = biological target: T3, human TNFR2 overexpressed on CHO-S cells (CHOS-hTNFR2) (human, UniProt P20333 23-461); experiment: flow cytometry on CHO-S cells overexpressing human TNFR2 (chimeric antibodies), MFI-FL2-A; unit taken from the axis Conc log(nM); the curve is still rising to about 29000 at log(nM) 2.5
T3 construct: also called hTNFR2 CHO-S; human TNFR2 molecule overexpressed on CHO-S cells
T3 sequence: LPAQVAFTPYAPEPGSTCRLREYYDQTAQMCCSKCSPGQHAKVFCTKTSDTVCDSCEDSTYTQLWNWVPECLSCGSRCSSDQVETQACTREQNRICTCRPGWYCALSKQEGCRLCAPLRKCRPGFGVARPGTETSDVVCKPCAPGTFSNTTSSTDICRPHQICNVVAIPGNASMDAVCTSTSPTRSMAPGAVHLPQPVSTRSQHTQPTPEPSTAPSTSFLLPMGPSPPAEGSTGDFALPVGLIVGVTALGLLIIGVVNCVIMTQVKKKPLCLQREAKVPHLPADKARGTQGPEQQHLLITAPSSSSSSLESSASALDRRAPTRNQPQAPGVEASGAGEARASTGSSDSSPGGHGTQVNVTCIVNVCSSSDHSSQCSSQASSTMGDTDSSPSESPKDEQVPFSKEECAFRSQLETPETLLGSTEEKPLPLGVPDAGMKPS
Protocol: (§3) In the study, the binding of the chimeric antibodies of the present invention, after being diluted in a gradient, to a stable CHO-S cell strain overexpressing human TNFR2 on the surface was assayed by using a flow cytometer. cDNAs encoding human TNFR2 (SEQ ID NO: 60) and cynomolgus monkey TNFR2 (SEQ ID NO: 61) were cloned into pCH01.0 vectors (Invitrogen), which were transfected into CHO-S cells (Invitrogen) to produce CHO-S cells overexpressing human TNFR2 (CHOS-hTNFR2) and CHO-S cells overexpressing cynomolgus monkey TNFR2 (CHOS-cTNFR2).
(§4) CHOS-hTNFR2 cells or CHOS-cTNFR2 cells were counted and diluted to 2×10⁶ cells/mL, and added to a U-bottom 96-well plate at 100 μL/well. The mixture was centrifuged at 300 g for 5 min, and the cell medium was removed. The dilutions of the samples (the chimeric antibodies 3C4, 69B1, and 72G8 and the positive control antibody OPI) (the antibodies were subjected to a three-fold serial dilution in PBS from the maximum antibody concentration of 300 nM) were added to the U-plate, and the cells were resuspended at 100 μL/well and left to stand on ice for 30 min. The suspension was centrifuged at 400 g for 5 min, and the supernatant was removed. The cells were washed twice with PBS. The mixture was centrifuged at 300 g for 5 min, and PBS was removed. […]

[7] = biological target: T4, cynomolgus monkey TNFR2 overexpressed on CHO-S cells (CHOS-cTNFR2) (cynomolgus monkey, UniProt P20333 23-461 (human entry)); experiment: flow cytometry on CHO-S cells overexpressing cynomolgus monkey TNFR2 (chimeric antibodies), MFI-FL2-A; unit taken from the axis Conc log(nM); the curve is still rising at log(nM) 2.5, no upper plateau
T4 construct: also called cTNFR2 CHO-S
T4 chain: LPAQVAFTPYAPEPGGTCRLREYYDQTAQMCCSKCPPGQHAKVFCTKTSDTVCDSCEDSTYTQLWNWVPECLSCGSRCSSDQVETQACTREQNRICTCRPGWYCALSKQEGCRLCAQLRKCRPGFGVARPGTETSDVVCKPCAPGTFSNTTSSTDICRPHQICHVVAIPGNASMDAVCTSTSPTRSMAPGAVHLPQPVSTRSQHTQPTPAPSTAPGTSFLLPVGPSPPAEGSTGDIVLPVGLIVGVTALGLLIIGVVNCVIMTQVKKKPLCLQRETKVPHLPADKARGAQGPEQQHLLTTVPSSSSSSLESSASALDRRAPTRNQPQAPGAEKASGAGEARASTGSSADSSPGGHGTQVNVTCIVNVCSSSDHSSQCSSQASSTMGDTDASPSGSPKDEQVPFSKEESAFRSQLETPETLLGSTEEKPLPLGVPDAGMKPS
Protocol: as §3, §4

[8] = biological target: T3, human TNFR2 overexpressed on CHO-S …; experiment: flow cytometry on CHO-S cells overexpressing human TNFR2 (hybridoma antibodies), MFI
Protocol: (§5) In the study, the binding of the hybridoma antibodies (3C4, 69B1, and 72G8) of the present invention, after being diluted in a gradient, to a stable CHO-S cell strain overexpressing human TNFR2 on the surface was assayed by using a flow cytometer.
(§6) CHOS-hTNFR2 cells or CHOS-cTNFR2 cells were counted and diluted to 2×10⁶ cells/mL, and added to a U-bottom 96-well plate at 100 μL/well. The mixture was centrifuged at 300 g for 5 min, and the cell medium was removed. The dilutions of the samples (the hybridoma antibodies 3C4, 69B1, and 72G8 and the positive control antibody OPI) (the antibodies were subjected to a two-fold serial dilution in PBS from the maximum antibody concentration of 300 nM) were added to the U-plate, and the cells were resuspended at 100 μL/well and left to stand on ice for 30 min. The suspension was centrifuged at 400 g for 5 min, and the supernatant was removed. The cells were washed twice with PBS. The mixture was centrifuged at 300 g for 5 min, and PBS was removed. […] The mixture was centrifuged at 400 g for 5 min, and the supernatant was removed. The cells were washed 3 times with PBS. The cells were resuspended in 200 μL of 1×PBS and assayed by FACS.

[9] = biological target: T4, cynomolgus monkey TNFR2 overexpressed …; experiment: flow cytometry on CHO-S cells overexpressing cynomolgus monkey TNFR2 (hybridoma antibodies), MFI
Protocol: as §5, §6

With IgG (antibody) the EC50 [1] was 13500 µM, the EC50 [2] was 0.00112 µM and the EC50 [3] was 0.0223 µM.

B1: chimeric antibody 72G8 (antibody, human IgG1, kappa, V domains shown)
VH: EVQLQQSGAELARPGASVMLSCKASGYTFTSYWMQWLKQRPGQGLEWIGAIYPGDGDTRYTQKFKGKATLTADKSSSTAYMQLSSLASEDSAVYYCVRDDGLYYAMDYWGQGTSVTVSS
VL: QIVLTQSPTIMSASLGERVTMTCTASSSVSSSYLHWYQQKPGSSPKLWIYSTSNLASGVPARFSGSGSGTSYSLTISSMEAEDAATYYCHQYHRSPPTFGGGTKLEIKR
B1 was tested, and the Kd [4] was 0.00451 µM, the koff [4] was 0.00515 s⁻¹ and the kon [4] was 1.14e+06 M⁻¹ s⁻¹. For the same molecule, the Kd [5] was 0.00311 µM, the koff [5] was 0.00509 s⁻¹ and the kon [5] was 1.64e+06 M⁻¹ s⁻¹. It also gave an EC50 [6] of 0.0284 µM and an EC50 [7] of 0.122 µM.

B2: hybridoma antibody 69B1 (antibody, V domains shown)
VH: QIQLVQSGPELKKPGETVKISCKASGYTFTDYSMNWVKQAPGKGLKWMGWLNTETGEPIYADDFKGRFVFSLETSASTAYLEINNLNDEDTATYFCAREAIYYGTSYVLDYWGQGTSVTVSS
VL: DIVLTQSPASLAVSLGQRATISCRASESVEYYGTNFMQWYQQKPGQPPKLLIYSASNVESGVPARFSGSGSGTDFSLNIHPVEEDDIAVYFCQQSRKDPSTFGEGTNLEIK
notes: Murine antibody from the hybridoma (detected with anti-mouse IgG)
B2 was tested, and the “EC50 (read off the curve)” value [8] was about 0.001 µM and the “EC50 (read off the curve)” value [9] was about 0.001 µM.
